Paper PMC2185562
“And” between values parts separate entries of the source, which are not always exact repeats. Equal values may be shown once.

Target: endogenous ezrin of LLC-PK1 cells (pig (endogenous in LLC-PK1)) (UniProt F1SB42)
Assay: SEC

endogenous ezrin of LLC-PK1 cells (from UniProt F1SB42 1-551) (natural protein)
percent of the ezrin of the fraction that is oligomers: 15% and 28%
percent of the total cellular ezrin found as oligomers in this fraction: 12.3% and 2.6%
